Laboratory results as given in article PMC12547689.

What was measured:
[1] = molecular target: GFP-diS2 (sfGFP H148C V206F) (Aequorea victoria) [GFP: P42212]; experiment: fluorescence emission ratio (CRO–O^− : CRO–OH excitation); percentage of dimer after incubation with CuSO4 (1 mM; CuCl2 gave no discernible change for GFP-diS2), 50 mM Tris–HCl pH 8; monomer to disulphide-linked dimer
[2] = molecular target: GFP-diS2 (sfGFP H148C V206F) (Aequorea victoria) [GFP: P42212]; experiment: fluorescence emission ratio (CRO–O^− : CRO–OH excitation); dimerisation kinetics with 1 mM CuSO4, 50 mM Tris–HCl pH 8, plate reader, excitation 388 nm and 483 nm, emission 516 nm; second order A + A → A2; apparent KD, estimated, non-equilibrium (covalent disulphide dimer); monomer to dimer
[3] = molecular target: GFP-diS1 (sfGFP H148C) (Aequorea victoria) [GFP: P42212]; experiment: fluorescence emission ratio (CRO–O^− : CRO–OH excitation); percentage of dimer after incubation with CuSO4 (1 mM; CuCl2 gave no discernible change for GFP-diS2), 50 mM Tris–HCl pH 8; monomer to disulphide-linked dimer
[4] = molecular target: GFP-diS1 (sfGFP H148C) (Aequorea victoria) [GFP: P42212]; experiment: fluorescence emission ratio (CRO–O^− : CRO–OH excitation); dimerisation kinetics with 1 mM CuSO4, 50 mM Tris–HCl pH 8, plate reader, excitation 388 nm and 483 nm, emission 516 nm; second order A + A → A2; apparent KD, estimated, non-equilibrium (covalent disulphide dimer); monomer to dimer

| percent dimer with CuSO4 [1] | Kd [2] | percent dimer after 1 h with CuSO4 [3] | Kd [4] | Substance |
| --- | --- | --- | --- | --- |
| 80% | 4.6 µM |  |  | GFP-diS2 (sfGFP H148C V206F) (from UniProt P42212 1-238) |
|  |  | 55% | > 25 µM | GFP-diS1 (sfGFP H148C) (from UniProt P42212 1-238) |
